According to US5792629A, “Isolated DNA encoding novel protease inhibitory polypeptide” (Mochida Pharmaceutical Co., Ltd., priority 1990, dated 1998):

Experiments:
[1] = biological target: T1, Human plasma plasmin (Homo sapiens, UniProt P00747); test: Plasmin-inhibiting activity, substrate S-2251; type: biochemical; conditions: purified sample, various concentrations; remaining activity vs buffer control (FIG. 16A-C)
T1 construct: Human plasma plasmin (Sigma Chemical Co.) was dissolved in physiological saline; purchased Sigma Chemical Co; host or cells: human plasma
Method: The purified sample obtained in Example 1-(5) was dissolved in 100 μl of distilled water. Concentration of this solution was determined based on its bovine trypsin-inhibiting activity using the aforementioned UTI as a standard. The solution was then diluted to various concentration levels with 0.11M NaCl/50 mM Tris-HCl buffer (pH 7.4) for use in the activity measurement. The UTI was also diluted in the same manner. Using a synthetic compound S-2251 (Daiichi Pure Chemicals Co., Ltd.) as a substrate, human plasmin-inhibiting activities of the diluted test samples and the positive control were measured in accordance with the method of Friberger et al. (Friberger,P. et al., Haemostasis, vol.7, pp.138-145, 1978).
Human plasma plasmin (Sigma Chemical Co.) was dissolved in physiological saline to a concentration of 1 U/ml and the solution was further diluted with 50% glycerol/2 mM HCl solution to prepare 0.1 U/ml of plasmin solution. 3.5 mM solution of S-2251 was prepared by dissolving it in distilled water.
Next, 50 μl of the test sample or positive control was mixed with 50 μl of the plasmin solution and 100 μl of 0.11M NaCl/50 mM Tris-HCl buffer (pH 7.4). After incubation at 37° C. for 10 minutes, 50 μl of the S-2251 solution was added to the mixture to start the reaction. The reaction was carried out at 37° C. for 2 minutes and then stopped by adding 25 μl of 50% acetic acid solution to the reaction mixture. Thereafter, absorbance at 405 nm was measured using a spectrophotometer.
In this instance, in order to eliminate absorbance of various solutions in the reaction mixture, a blank solution was prepared by mixing 50 μl of the plasmin solution with 25 μl of 50% acetic acid and then with 50 μl of each test sample or the positive control, 100 μl of 0.11M NaCl/50 mM Tris-HCl buffer (pH 7.4) and with 50 μl of the S-2251 solution.
In this figure, human plasmin remaining activity was expressed by percentage based on the absorbance of a control reaction mixture in which 50 μl of 0.11M NaCl/50 mM Tris-HCl buffer (pH 7.4) was used instead of the test sample or the positive control.

[2] = biological target: T2, human plasma kallikrein (Homo sapiens, UniProt P03952); test: Human plasma kallikrein-inhibiting activity, substrate S-2302; type: biochemical; conditions: for human plasma kallikrein-inhibiting activity: purified sample, various concentrations, remaining activity vs buffer control (FIG. 17A-C)
T2 construct: purchased Sigma Chemical Co
Method: The purified sample obtained in Example 1-(5) was dissolved in 100 μl of distilled water. Concentration of this solution was determined based on its bovine trypsin-inhibiting activity using the aforementioned UTI as a standard. The solution was then diluted to various concentration levels with 0.1% BSA/150 mM NaCl/50 mM Tris-HCl buffer (pH 8.3) for use in the activity measurement. The UTI was also diluted in the same manner. Using a synthetic compound S-2302 (Daiichi Pure Chemicals Co., Ltd.) as a substrate, human plasma kallikrein-inhibiting activities of the diluted test samples and the positive control were measured in accordance with the method of Ohno et al. (Ohno,H. et al., Thromb. Res., vol.19, pp.579-588, 1980) as follows.
0.26 U/ml solution of human plasma kallikrein (Sigma Chemical Co.) was diluted with 0.1% BSA/150 mM NaCl/50 mM Tris-HCl buffer (pH 8.3) to prepare 0.08 U/ml of plasma kallikrein solution. 4 mM solution of S-2302 was prepared by dissolving it in distilled water and the solution was further diluted with 0.1% BSA/150 mM NaCl/50 mM Tris-HCl buffer (pH 8.3) to prepare 2 mM solution of S-2302.
Next, 25 μl of the test sample or positive control was mixed with 75 μl of 0.1% BSA/150 mM NaCl/50 mM Tris-HCl buffer (pH 8.3) and 50 μl of the plasma kallikrein solution. After incubation at 37° C. for 10 minutes, 50 μl of the S-2302 solution was added to the mixture to start the reaction. The reaction was carried out at 37° C. for 8 minutes and then stopped by adding 25 μl of 50% acetic acid solution to the reaction mixture. Thereafter, absorbance at 405 nm was measured using a spectrophotometer.
In this instance, in order to eliminate absorbance of various solutions in the reaction mixture a blank solution was prepared by mixing 50 μl of the plasma kallikrein solution with 25 μl of 50% acetic acid and then with 25 μl of each test sample or the positive control, 75 μl of 0.1% BSA/150 mM NaCl/50 mM Tris-HCl buffer (pH 8.3) and with 50 μl of the S-2302 solution.
In this figure, human plasma kallikrein remaining activity was expressed by percentage based on the absorbance of a control reaction mixture in which 25 μl of 0.1% BSA/150 mM NaCl/50 mM Tris-HCl buffer (pH 8.3) was used instead of the test sample or the positive control.

[3] = test system: ORTHO Plasma Coagulation Control Level 1; test: Measurement of activated partial thromboplastin time (aPTT); conditions: for effect on aPTT, anticoagulant activity: conclusion from Table 1; for aPTT (%): aPTT of distilled water control taken as 100%
Method: The COAGTEC (TE-600, ERMA OPTICAL WORKS LTD), a measurement instrument, was used and the following operation was conducted at 37° C. to measure the effect of polypeptide of the present invention on activated partial thromboplastin time (hereinafter abbreviated as aPTT).
First, purified samples obtained in Example 1 (5), Example 2 (5) and Example 3 (4) were dissolved in 100 μl of distilled water. Concentration of each solution was determined based on bovine trypsin-inhibiting activity using UTI as a standard. Each solution was then diluted to various concentration levels for activity measurement.
Afterward, 50 μl of the ORTHO Plasma Coagulation Control Level 1 (Ortho Diagnostic Systems Co., Ltd.) was put into glass tubes. 50 μl of the sample or 50 μl of distilled water as control was added. Furthermore, 100 μl of the Activated THROMBOFAX Reagent-Optimized (Ortho Diagnostic Systems Co., Ltd.) was added and then each glass tube was set in the apparatus. 100 μl of 0.02M CaCl2 was then added to each glass tube for the measurement, and aPTT for each test samples and the control was obtained.
The aPTT values of the samples are described in percentage when taking the aPTT value of control as 100%.

T2 sequence (P03952 20-638): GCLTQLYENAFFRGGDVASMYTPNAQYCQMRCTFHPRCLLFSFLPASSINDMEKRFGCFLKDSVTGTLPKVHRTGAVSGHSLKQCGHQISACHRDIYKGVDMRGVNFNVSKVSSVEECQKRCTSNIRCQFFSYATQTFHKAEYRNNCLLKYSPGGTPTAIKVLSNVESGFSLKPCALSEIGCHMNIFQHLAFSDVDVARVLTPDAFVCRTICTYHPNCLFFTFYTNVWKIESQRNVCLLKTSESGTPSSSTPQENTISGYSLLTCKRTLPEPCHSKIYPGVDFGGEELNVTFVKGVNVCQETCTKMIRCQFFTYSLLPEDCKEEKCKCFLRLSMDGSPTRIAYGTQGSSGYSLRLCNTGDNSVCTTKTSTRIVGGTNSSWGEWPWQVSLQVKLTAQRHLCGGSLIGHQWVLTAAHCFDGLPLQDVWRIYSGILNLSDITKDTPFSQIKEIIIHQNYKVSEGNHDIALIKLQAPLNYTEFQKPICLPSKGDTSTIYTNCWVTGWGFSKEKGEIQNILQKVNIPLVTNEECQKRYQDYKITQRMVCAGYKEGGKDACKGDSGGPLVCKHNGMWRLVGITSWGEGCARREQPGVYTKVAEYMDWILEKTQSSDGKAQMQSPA
T1 sequence (P00747 97-810): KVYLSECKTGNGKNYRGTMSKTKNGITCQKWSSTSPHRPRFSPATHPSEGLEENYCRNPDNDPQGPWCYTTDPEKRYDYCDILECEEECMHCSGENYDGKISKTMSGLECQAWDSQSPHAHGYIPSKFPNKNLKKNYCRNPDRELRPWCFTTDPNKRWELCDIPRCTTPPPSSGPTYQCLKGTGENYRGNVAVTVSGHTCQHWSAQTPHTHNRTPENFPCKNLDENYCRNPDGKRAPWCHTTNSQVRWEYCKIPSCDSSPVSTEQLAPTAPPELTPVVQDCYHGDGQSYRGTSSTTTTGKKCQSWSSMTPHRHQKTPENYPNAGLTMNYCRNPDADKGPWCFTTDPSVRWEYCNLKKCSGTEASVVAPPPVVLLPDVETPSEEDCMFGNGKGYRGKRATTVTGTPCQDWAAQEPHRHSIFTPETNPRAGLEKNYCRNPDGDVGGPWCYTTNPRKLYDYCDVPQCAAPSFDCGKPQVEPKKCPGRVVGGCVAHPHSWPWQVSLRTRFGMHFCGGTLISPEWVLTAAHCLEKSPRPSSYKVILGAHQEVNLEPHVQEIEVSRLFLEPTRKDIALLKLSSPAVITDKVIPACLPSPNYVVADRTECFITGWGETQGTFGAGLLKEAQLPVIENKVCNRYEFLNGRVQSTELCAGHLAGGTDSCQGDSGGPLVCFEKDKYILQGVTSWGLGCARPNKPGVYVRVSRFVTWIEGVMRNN

Molecule	human plasmin-inhibiting activity [1]	human plasma kallikrein-inhibiting activity [2]	plasma kallikrein-inhibiting activity ([2]; experiments of the inventors, stated in the background)	effect on aPTT, anticoagulant activity [3]	aPTT (%) ([3]; final concentration 33 U/ml)	aPTT (%) ([3]; final concentration 167 U/ml)
CC51: polypeptide defined by the amino acid sequence of formula 1, purified from culture supernatant of E. coli JE5505 (pM560) (CNLPIVRGPCRAFIQLWAFDAVKGKCVLFPYGGCQGNGNKFYSEKECREYC)	activity was found	activity was found	–	have an effect to extend aPTT and anticoagulant activity	172%	256%
TL66: polypeptide defined by formula 8; known enzyme-digested fragment of urinary trypsin inhibitor, made in E. coli JE5505 (pM551) (protein) TVAACNLPIVRGPCRAFIQLWAFDAVKGKCVLFPYGGCQGNGNKFYSEKECREYCGVPGDGDEELL	activity was found	activity was found	–	have an effect to extend aPTT and anticoagulant activity	157%	239%

Further lines, with some results ahead:

human plasmin-inhibiting activity [1]	human plasma kallikrein-inhibiting activity [2]	plasma kallikrein-inhibiting activity ([2]; experiments of the inventors, stated in the background)	Molecule	effect on aPTT, anticoagulant activity [3]	aPTT (%) ([3]; final concentration 33 U/ml)	aPTT (%) ([3]; final concentration 167 U/ml)
activity was found	activity was not found	no plasma kallikrein-inhibiting activity	UTI: urinary trypsin inhibitor purified from human urine (Mochida Pharmaceutical), used as positive control (protein, glycoprotein (sugar moieties, as the filing says in general of UTI)) AVLPQEEEGSGGGQLVTEVTKKEDSCQLGYSAGPCMGMTSRYFYNGTSMACETFQYGGCMGNGNNFVTEKECLQTCRTVAACNLPIVRGPCRAFIQLWAFDAVKGKCVLFPYGGCQGNGNKFYSEKECREYCGVPGDGDEELLRFSN	–	–	–
activity was found	activity was found	–	TN70: polypeptide defined by the amino acid sequence of formula 3, purified from culture supernatant of E. coli JE5505 (pM552) (protein) TVAACNLPIVRGPCRAFIQLWAFDAVKGKCVLFPYGGCQGNGNKFYSEKECREYCGVPGDGDEELLRFSN	have an effect to extend aPTT and anticoagulant activity	155%	230%
